The values below come from PMC10997057.

This assay deals with murine splenic AA amyloid extract (mouse (endogenous in spleen)) (UniProt P05367). Nature of the assay: co-sedimentation; pulldown with murine splenic AA amyloid extract in the presence of 20 μg non-radiolabeled peptide (competition).
Chain of murine splenic AA amyloid extract (mouse (endogenous in spleen)) (P05367 20-122): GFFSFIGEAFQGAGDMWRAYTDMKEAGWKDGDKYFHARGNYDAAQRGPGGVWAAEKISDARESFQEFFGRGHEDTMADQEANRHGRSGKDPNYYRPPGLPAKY

B1: non-radiolabeled peptide p5+14 (peptide)
peptide: GGGYSKAQKAQAKQAKQAQKAQKAQAKQAKQAQKAQKAQAKQAKQ
As for B1, the % of ^99mTc-p5+14 bound in the presence of 20 μg non-radiolabeled peptide worked out at 4%.
